Measurements: the supplement of paper PMC10567573

B1: INTS3 (parent)
chain: FHPIKETVVEEPVDITPYLDQLDE

Variants of: B1
Experiment: protein stability index of a GFP-peptide fusion (GPS, HEK-293T) (PSI 1-6); higher = more stable
Conditions: c terminus: a fixed tail appended
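Further: lentivirally expressed fusions sorted by FACS into six bins by GFP to DsRed ratio, PSI derived from sequencing read proportions per bin multiplied by bin number.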

For FKPIKETVVEEPVDITPYLDQLDE [H2K], which protein stability index is on record?
The protein stability index was 5.24.

With FLPIKETVVEEPVDITPYLDQLDE [H2L] as the variant, how does the protein stability index read?
The protein stability index was 4.87.

Which protein stability index does the source give for FMPIKETVVEEPVDITPYLDQLDE [H2M] here?
Its protein stability index is 4.87.

Which protein stability index does the source give for FNPIKETVVEEPVDITPYLDQLDE [H2N] here?
Its protein stability index is 5.18.

Which protein stability index does the source give for FPPIKETVVEEPVDITPYLDQLDE [H2P] here?
Its protein stability index is 5.03.

With FQPIKETVVEEPVDITPYLDQLDE [H2Q] as the variant, how does the protein stability index read?
The protein stability index was 4.7.

For FRPIKETVVEEPVDITPYLDQLDE [H2R], which protein stability index is on record?
Its protein stability index is 4.81.

Which protein stability index does the source give for FSPIKETVVEEPVDITPYLDQLDE [H2S] here?
Its protein stability index is 5.47.

Which protein stability index does the source give for FTPIKETVVEEPVDITPYLDQLDE [H2T] here?
The protein stability index was 4.62.

For FVPIKETVVEEPVDITPYLDQLDE [H2V], which protein stability index is on record?
Its protein stability index is 2.16.

For FWPIKETVVEEPVDITPYLDQLDE [H2W], which protein stability index is on record?
The protein stability index was 4.2.

Which protein stability index does the source give for FYPIKETVVEEPVDITPYLDQLDE [H2Y] here?
The protein stability index was 4.63.

For FHAIKETVVEEPVDITPYLDQLDE [P3A], which protein stability index is on record?
The protein stability index was 3.82.

Which protein stability index does the source give for FHCIKETVVEEPVDITPYLDQLDE [P3C] here?
Its protein stability index is 3.23.

Which protein stability index does the source give for FHDIKETVVEEPVDITPYLDQLDE [P3D] here?
The protein stability index was 4.79.

Which protein stability index does the source give for FHEIKETVVEEPVDITPYLDQLDE [P3E] here?
Its protein stability index is 5.

With FHFIKETVVEEPVDITPYLDQLDE [P3F] as the variant, how does the protein stability index read?
The protein stability index was 2.52.

Which protein stability index does the source give for FHGIKETVVEEPVDITPYLDQLDE [P3G] here?
Its protein stability index is 4.49.

With FHHIKETVVEEPVDITPYLDQLDE [P3H] as the variant, how does the protein stability index read?
Its protein stability index is 3.56.

For FHIIKETVVEEPVDITPYLDQLDE [P3I], which protein stability index is on record?
Its protein stability index is 2.66.

With FHKIKETVVEEPVDITPYLDQLDE [P3K] as the variant, how does the protein stability index read?
Its protein stability index is 4.82.

Which protein stability index does the source give for FHLIKETVVEEPVDITPYLDQLDE [P3L] here?
Its protein stability index is 3.14.

Which protein stability index does the source give for FHMIKETVVEEPVDITPYLDQLDE [P3M] here?
The protein stability index was 2.9.

Which protein stability index does the source give for FHNIKETVVEEPVDITPYLDQLDE [P3N] here?
Its protein stability index is 4.63.

Which protein stability index does the source give for FHQIKETVVEEPVDITPYLDQLDE [P3Q] here?
Its protein stability index is 3.78.

For FHRIKETVVEEPVDITPYLDQLDE [P3R], which protein stability index is on record?
Its protein stability index is 3.76.

With FHSIKETVVEEPVDITPYLDQLDE [P3S] as the variant, how does the protein stability index read?
The protein stability index was 4.03.

With FHTIKETVVEEPVDITPYLDQLDE [P3T] as the variant, how does the protein stability index read?
The protein stability index was 3.43.

For FHVIKETVVEEPVDITPYLDQLDE [P3V], which protein stability index is on record?
Its protein stability index is 4.19.

For FHWIKETVVEEPVDITPYLDQLDE [P3W], which protein stability index is on record?
Its protein stability index is 1.73.

Which protein stability index does the source give for FHYIKETVVEEPVDITPYLDQLDE [P3Y] here?
Its protein stability index is 2.75.

For FHPAKETVVEEPVDITPYLDQLDE [I4A], which protein stability index is on record?
Its protein stability index is 2.98.

With FHPCKETVVEEPVDITPYLDQLDE [I4C] as the variant, how does the protein stability index read?
Its protein stability index is 3.31.

For FHPDKETVVEEPVDITPYLDQLDE [I4D], which protein stability index is on record?
The protein stability index was 4.08.

For FHPEKETVVEEPVDITPYLDQLDE [I4E], which protein stability index is on record?
The protein stability index was 4.06.

Which protein stability index does the source give for FHPFKETVVEEPVDITPYLDQLDE [I4F] here?
Its protein stability index is 3.4.

For FHPGKETVVEEPVDITPYLDQLDE [I4G], which protein stability index is on record?
Its protein stability index is 4.25.

For FHPHKETVVEEPVDITPYLDQLDE [I4H], which protein stability index is on record?
Its protein stability index is 4.1.

With FHPKKETVVEEPVDITPYLDQLDE [I4K] as the variant, how does the protein stability index read?
The protein stability index was 3.08.

Which protein stability index does the source give for FHPLKETVVEEPVDITPYLDQLDE [I4L] here?
Its protein stability index is 3.85.

With FHPMKETVVEEPVDITPYLDQLDE [I4M] as the variant, how does the protein stability index read?
The protein stability index was 4.2.

Which protein stability index does the source give for FHPNKETVVEEPVDITPYLDQLDE [I4N] here?
Its protein stability index is 3.85.

With FHPPKETVVEEPVDITPYLDQLDE [I4P] as the variant, how does the protein stability index read?
Its protein stability index is 2.96.

Which protein stability index does the source give for FHPQKETVVEEPVDITPYLDQLDE [I4Q] here?
Its protein stability index is 3.83.

For FHPRKETVVEEPVDITPYLDQLDE [I4R], which protein stability index is on record?
Its protein stability index is 3.17.

With FHPSKETVVEEPVDITPYLDQLDE [I4S] as the variant, how does the protein stability index read?
The protein stability index was 3.87.

Which protein stability index does the source give for FHPTKETVVEEPVDITPYLDQLDE [I4T] here?
The protein stability index was 3.9.

For FHPVKETVVEEPVDITPYLDQLDE [I4V], which protein stability index is on record?
The protein stability index was 3.82.

For FHPWKETVVEEPVDITPYLDQLDE [I4W], which protein stability index is on record?
The protein stability index was 2.87.

For FHPYKETVVEEPVDITPYLDQLDE [I4Y], which protein stability index is on record?
Its protein stability index is 2.77.

With FHPIAETVVEEPVDITPYLDQLDE [K5A] as the variant, how does the protein stability index read?
Its protein stability index is 4.47.

Which protein stability index does the source give for FHPICETVVEEPVDITPYLDQLDE [K5C] here?
Its protein stability index is 3.99.

Which protein stability index does the source give for FHPIDETVVEEPVDITPYLDQLDE [K5D] here?
Its protein stability index is 4.86.

For FHPIEETVVEEPVDITPYLDQLDE [K5E], which protein stability index is on record?
The protein stability index was 5.06.

With FHPIFETVVEEPVDITPYLDQLDE [K5F] as the variant, how does the protein stability index read?
The protein stability index was 3.73.

For FHPIGETVVEEPVDITPYLDQLDE [K5G], which protein stability index is on record?
The protein stability index was 4.4.

With FHPIHETVVEEPVDITPYLDQLDE [K5H] as the variant, how does the protein stability index read?
The protein stability index was 4.67.

For FHPIIETVVEEPVDITPYLDQLDE [K5I], which protein stability index is on record?
Its protein stability index is 3.14.

Which protein stability index does the source give for FHPILETVVEEPVDITPYLDQLDE [K5L] here?
Its protein stability index is 3.87.

Which protein stability index does the source give for FHPIMETVVEEPVDITPYLDQLDE [K5M] here?
Its protein stability index is 4.24.

Which protein stability index does the source give for FHPINETVVEEPVDITPYLDQLDE [K5N] here?
The protein stability index was 4.8.

With FHPIPETVVEEPVDITPYLDQLDE [K5P] as the variant, how does the protein stability index read?
The protein stability index was 4.29.

For FHPIQETVVEEPVDITPYLDQLDE [K5Q], which protein stability index is on record?
Its protein stability index is 3.35.

For FHPIRETVVEEPVDITPYLDQLDE [K5R], which protein stability index is on record?
Its protein stability index is 3.9.

For FHPISETVVEEPVDITPYLDQLDE [K5S], which protein stability index is on record?
Its protein stability index is 4.99.

With FHPITETVVEEPVDITPYLDQLDE [K5T] as the variant, how does the protein stability index read?
Its protein stability index is 4.29.

With FHPIVETVVEEPVDITPYLDQLDE [K5V] as the variant, how does the protein stability index read?
The protein stability index was 4.17.

For FHPIWETVVEEPVDITPYLDQLDE [K5W], which protein stability index is on record?
Its protein stability index is 2.15.

For FHPIYETVVEEPVDITPYLDQLDE [K5Y], which protein stability index is on record?
Its protein stability index is 2.83.

For FHPIKATVVEEPVDITPYLDQLDE [E6A], which protein stability index is on record?
The protein stability index was 2.42.

Which protein stability index does the source give for FHPIKCTVVEEPVDITPYLDQLDE [E6C] here?
The protein stability index was 1.78.

With FHPIKDTVVEEPVDITPYLDQLDE [E6D] as the variant, how does the protein stability index read?
The protein stability index was 3.77.

With FHPIKFTVVEEPVDITPYLDQLDE [E6F] as the variant, how does the protein stability index read?
The protein stability index was 1.53.

With FHPIKGTVVEEPVDITPYLDQLDE [E6G] as the variant, how does the protein stability index read?
The protein stability index was 3.04.

With FHPIKHTVVEEPVDITPYLDQLDE [E6H] as the variant, how does the protein stability index read?
Its protein stability index is 2.01.

For FHPIKITVVEEPVDITPYLDQLDE [E6I], which protein stability index is on record?
Its protein stability index is 1.57.

For FHPIKKTVVEEPVDITPYLDQLDE [E6K], which protein stability index is on record?
Its protein stability index is 2.34.

With FHPIKLTVVEEPVDITPYLDQLDE [E6L] as the variant, how does the protein stability index read?
Its protein stability index is 1.9.

For FHPIKMTVVEEPVDITPYLDQLDE [E6M], which protein stability index is on record?
Its protein stability index is 2.

With FHPIKNTVVEEPVDITPYLDQLDE [E6N] as the variant, how does the protein stability index read?
The protein stability index was 2.67.

For FHPIKPTVVEEPVDITPYLDQLDE [E6P], which protein stability index is on record?
The protein stability index was 2.89.

With FHPIKQTVVEEPVDITPYLDQLDE [E6Q] as the variant, how does the protein stability index read?
Its protein stability index is 2.1.

Which protein stability index does the source give for FHPIKRTVVEEPVDITPYLDQLDE [E6R] here?
The protein stability index was 1.98.

For FHPIKSTVVEEPVDITPYLDQLDE [E6S], which protein stability index is on record?
Its protein stability index is 2.52.

For FHPIKTTVVEEPVDITPYLDQLDE [E6T], which protein stability index is on record?
The protein stability index was 3.28.

With FHPIKVTVVEEPVDITPYLDQLDE [E6V] as the variant, how does the protein stability index read?
The protein stability index was 1.87.

With FHPIKWTVVEEPVDITPYLDQLDE [E6W] as the variant, how does the protein stability index read?
The protein stability index was 1.91.

Which protein stability index does the source give for FHPIKYTVVEEPVDITPYLDQLDE [E6Y] here?
Its protein stability index is 1.75.

For FHPIKEAVVEEPVDITPYLDQLDE [T7A], which protein stability index is on record?
The protein stability index was 3.73.

For FHPIKECVVEEPVDITPYLDQLDE [T7C], which protein stability index is on record?
The protein stability index was 2.66.

For FHPIKEDVVEEPVDITPYLDQLDE [T7D], which protein stability index is on record?
Its protein stability index is 3.85.

Which protein stability index does the source give for FHPIKEEVVEEPVDITPYLDQLDE [T7E] here?
The protein stability index was 4.19.

With FHPIKEFVVEEPVDITPYLDQLDE [T7F] as the variant, how does the protein stability index read?
The protein stability index was 2.32.

With FHPIKEGVVEEPVDITPYLDQLDE [T7G] as the variant, how does the protein stability index read?
Its protein stability index is 4.18.
